Data reported in patent US20220267400.

Columns and labels:
[1] = molecular target: T1, Construct B (m IL2-2x(SG4) - MMPcs1 - 2x (G4S) - IL2Ralpha - mIgG1 Fc)
T1 chain: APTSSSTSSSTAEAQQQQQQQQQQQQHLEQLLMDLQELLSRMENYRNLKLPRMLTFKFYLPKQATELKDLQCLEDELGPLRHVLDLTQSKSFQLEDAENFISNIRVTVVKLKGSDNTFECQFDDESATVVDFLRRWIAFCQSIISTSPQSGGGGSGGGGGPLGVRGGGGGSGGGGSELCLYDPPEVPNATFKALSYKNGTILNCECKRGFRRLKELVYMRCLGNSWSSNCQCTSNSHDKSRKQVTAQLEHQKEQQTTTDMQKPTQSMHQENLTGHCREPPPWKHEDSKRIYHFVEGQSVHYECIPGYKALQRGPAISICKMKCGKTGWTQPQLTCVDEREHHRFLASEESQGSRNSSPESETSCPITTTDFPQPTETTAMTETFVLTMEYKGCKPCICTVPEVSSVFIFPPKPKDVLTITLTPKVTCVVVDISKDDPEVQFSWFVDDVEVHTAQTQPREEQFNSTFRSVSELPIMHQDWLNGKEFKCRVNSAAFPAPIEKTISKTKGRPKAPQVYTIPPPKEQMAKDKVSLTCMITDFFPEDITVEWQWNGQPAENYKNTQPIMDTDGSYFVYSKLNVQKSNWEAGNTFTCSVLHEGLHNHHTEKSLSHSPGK

[2] = molecular target: Construct E (Hu IL2(C125S)- 2x(SG4) - MMPcs1 - 2x(G4S) - IL2Ralpha - hu IgG1 Fc - 6xHIS)
Chain of Construct E (Hu IL2(C125S)- 2x(SG4) - MMPcs1 - 2x(G4S) - IL2Ralpha - hu IgG1 Fc - 6xHIS) (chain, as listed by the source C125S): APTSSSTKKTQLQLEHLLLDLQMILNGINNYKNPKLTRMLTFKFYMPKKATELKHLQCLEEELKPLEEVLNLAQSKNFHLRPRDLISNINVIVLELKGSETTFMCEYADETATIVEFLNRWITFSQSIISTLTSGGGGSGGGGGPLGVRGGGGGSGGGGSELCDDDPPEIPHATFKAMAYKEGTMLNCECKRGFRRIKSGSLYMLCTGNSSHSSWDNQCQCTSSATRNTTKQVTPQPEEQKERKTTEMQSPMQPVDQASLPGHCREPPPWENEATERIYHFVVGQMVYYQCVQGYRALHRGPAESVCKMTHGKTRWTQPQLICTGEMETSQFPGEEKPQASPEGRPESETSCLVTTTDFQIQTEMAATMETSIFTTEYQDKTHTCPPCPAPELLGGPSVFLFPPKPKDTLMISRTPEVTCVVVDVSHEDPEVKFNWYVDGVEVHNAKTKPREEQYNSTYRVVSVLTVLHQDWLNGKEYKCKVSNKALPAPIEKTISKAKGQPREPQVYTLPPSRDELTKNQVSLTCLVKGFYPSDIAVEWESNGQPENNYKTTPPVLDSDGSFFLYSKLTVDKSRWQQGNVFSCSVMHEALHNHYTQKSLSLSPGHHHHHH

[3] = molecular target: T2, Construct A (mIL2- 2x(SG4) - MMPcs1 - 2x(G4S) - IL2Ralpha - 6His)
T2 chain: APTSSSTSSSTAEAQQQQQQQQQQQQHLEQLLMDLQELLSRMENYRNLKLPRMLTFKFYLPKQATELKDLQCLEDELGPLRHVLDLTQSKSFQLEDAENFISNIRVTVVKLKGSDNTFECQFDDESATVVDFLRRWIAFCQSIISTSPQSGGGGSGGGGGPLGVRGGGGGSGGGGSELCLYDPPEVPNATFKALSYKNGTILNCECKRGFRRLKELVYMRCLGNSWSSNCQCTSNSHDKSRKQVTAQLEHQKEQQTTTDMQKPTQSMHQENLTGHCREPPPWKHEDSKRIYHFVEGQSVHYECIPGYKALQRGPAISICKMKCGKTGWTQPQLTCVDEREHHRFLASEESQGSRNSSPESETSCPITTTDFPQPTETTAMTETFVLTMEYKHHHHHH

B1: Recombinant MMP9 (R&D Systems), activated with p-aminophenylmercuric acetate (protein)
chain: FQTFKGLKWDHHNITYWIQNYSEDLPRDMIDDAFARAFAVWGEVAPLTFTRVYGPEADIVIQFGVAEHGDGYPFDGKDGLLAHAFPPGAGVQGDAHFDDDELWSLGKGVVIPTYYGNSNGAPCHFPFTFEGRSYSACTTDGRNDGTPWCSTTADYDKDGKFGFCPSERLYTEHGNGEGKPCVFPFIFEGRSYSACTTKGRSDGYRWCATTANYDQDKLYGFCPTRVDATVVGGNSAGELCVFPFVFLGKQYSSCTSDGRRDGRLWCATTSNFDTDKKWGFCPDQGYSLFLVAAHEFGHALGLDHSSVPEALMYPLYSYLEGFPLNKDDIDGIQYLYGRGSKPDPRPPATTTTEPQPTAPPTMCPTIPPTAYPTVGPTVGPTGAPSPGPTSSPSPGPTGAPSPGPTAPPTAGSSEASTESLSPADNPCNVDVFDAIAEIQGALHFFKDGWYWKFLNHRGSPLQGPFLTARTWPALPATLDSAFEDPQTKRVFFFSGRQMWVYTGKTVLGPRSLDKLGLGPEVTHVSGLLPRRLGKALLFSKGRVWRFDLKSQKVDPQSVIRVDKEFSGVPWNSHDIFQYQDKAYFCHGKFFWRVSFQNEVNKVDHEVNQVDDVGYVTYDLLQCP
- cleavage of the fusion protein, SDS-PAGE and Western blot [1]: essentially complete cleavage of the fusion proteins by MMP9 protease was seen after overnight incubation
- cleavage of the fusion protein, Western blot [1]: Cleavage product was detectable at 1 hour, and the full-length cytokine prodrug gave only a faint band at the 20 hour +MMP time point
- cleavage of the fusion protein, SDS-PAGE and Western blot [2]: essentially complete cleavage of the fusion proteins by MMP9 protease was seen after overnight incubation
- cleavage of the fusion protein, Western blot [2]: Cleavage product was detectable at 1 hour, and the full-length cytokine prodrug gave essentially no band at the 22 hour +MMP time point
- cleavage of the fusion protein, SDS-PAGE and Western blot [3]: essentially complete cleavage of the fusion proteins by MMP9 protease was seen after overnight incubation
- cleavage of the fusion protein, Western blot [3]: Cleavage product was detectable at 1 hour, and the full-length cytokine prodrug was substantially undetectable at the overnight +MMP time point
